Data published in US9144596 (UNIVERSITY OF FLORIDA RESEARCH FOUNDATION, dated 2015).

Tests used:
[1] = target: pol-βMut(Set-1) (T79A/K81A/R83A) fused to the yeast Gal4 activation domain (pGAD-C3-pol-βMut(Set-1)) (yeast; human, UniProt P06746 1-335); assay: yeast two-hybrid (growth on SD-ULH medium with 5 mM 3-amino-1,2,4-triazole)
[2] = target: pol-βwt (full-length DNA polymerase β) fused to the yeast Gal4 activation domain (pGAD-C3-pol-βwt) (yeast; human, UniProt P06746 1-335); assay: as above

B1: APCwt (amino acids 1190-1328) fused to the yeast Gal4 DNA-binding domain (pGBDU-C3-APCwt) (other)
chain: MKLLSSIEQACDICRLKKLKCSKEKPKCAKCLKNNWECRYSPKTKRSPLTRAHLTEVESRLERLEQLFLLIFPREDLDMILKMDSLQDIKALLTGLFVQDNVNKDAVTDRLASVETDMPLTLRQHRISATSSSEESSNKGQRQLTVSSQKQSFSFSKSSSGQSSKTEHMSSSSENTSTPSSNAKRQNQLHPSSAQSRSGQPQKAATCKVSSINQETIQTYCVEDTPICFSRCSSLSSLSSAEDEIGCNQTTQEADSANTLQIAEIKEKIGTRSAEDPVSEVPAVSQ
notes: Yeast two-hybrid bait, expressed in S. cerevisiae PJ69-4A; also called APC wild-type (wt)
binding result [1]: no binding

B2: APC(I-A,Y-A) (amino acids 1200-1324; I1259A, Y1262A) fused to the yeast Gal4 DNA-binding domain (pGBDU-C3-APC(I-A,Y-A)) (other)
chain: SSSGQSSKTEHMSSSSENTSTPSSNAKRQNQLHPSSAQSRSGQPQKAATCKVSSINQETAQTACVEDTPICFSRCSSLSSLSSAEDEIGCNQTTQEADSANTLQIAEIKEKIGTRSAEDPVSEVP
notes: also called mutant APC (I-A,Y-A); mutant DRI-domain
binding result [2]: no binding
